Assay results: patent US20240002530A1 (LXZ SERVICES, published 2024)
Substitutions are numbered along the chain they refer to.

B1: Antibody No. 14 (antibody, V domains shown)
VH: VQLQESGPGLVQPSQSLSITCTVSGFSLTSYGVHWVRQSPGKGLEWLGVIWRGGSTDYNAAFMSRLSITKDNSKSQVFFKMNSLQADDTAIYYCAKKKYGNYGAMDYWGQGTTVTVSS
VL: DIVMTQSPKFLLVSAGDRVTITCKASQSVSNDVAWYQQKPGQSPKLLIYYASNRYTGVPDRFTGSGYGTDFTFTISTVQAEDLAVYFCQQDYSSPYTFGGGTKLELK
notes: Mouse hybridoma monoclonal IgG from ascites; also called PSMA-McAb clone 14
B2: Antibody No. 12 (antibody, V domains shown)
VH: VQLQESGPGLVKPSQSLSLTCTVTGYSITSDYAWNWIRQFPGNKLEWMGYISYSGSTSYNPSLKSRISITRDTSKNQFFLHLNSVTTEDTATYYCARQTYYYGSSPFTYWGQGTTVTVSS
VL: DIVMTQTPSSLTVTAGEKVTMRCKSSQSLLNSGNQKSYLTWYQQKPGQPPKLLIYWASTRESGVPDRFTGSGSGTDFTLTISSVQAEDLAVYYCQNDYSYPLTFGAGTKLELK
notes: Mouse hybridoma monoclonal IgG from ascites; also called PSMA-McAb clone 12
B3: Antibody No. 18 (antibody, V domains shown)
VH: VQLEESGDDLVKPGASVKLSCKASGHTFTSYWINWIKQRPGQGLEWIGRIAPGSGSTYYNEMFKGKATLTVDTSSSTAYIQLSSLSSEDSAVYFCARNLKYGNYGFAYWGQGTTVTVSS
VL: B2 VL with R22S, S37N, L112I
notes: Mouse hybridoma monoclonal IgG from ascites; also called PSMA-McAb clone 18

Target: T1, human prostate-specific membrane antigen (PSMA), on prostate cancer LNCaP and PC-3 cells (human, UniProt Q04609 1-750)
T1 construct: also called glutamate carboxypeptidase II; GCPII
Assay: flow cytometry on LNCaP cells

T1 sequence (Q04609 whole entry): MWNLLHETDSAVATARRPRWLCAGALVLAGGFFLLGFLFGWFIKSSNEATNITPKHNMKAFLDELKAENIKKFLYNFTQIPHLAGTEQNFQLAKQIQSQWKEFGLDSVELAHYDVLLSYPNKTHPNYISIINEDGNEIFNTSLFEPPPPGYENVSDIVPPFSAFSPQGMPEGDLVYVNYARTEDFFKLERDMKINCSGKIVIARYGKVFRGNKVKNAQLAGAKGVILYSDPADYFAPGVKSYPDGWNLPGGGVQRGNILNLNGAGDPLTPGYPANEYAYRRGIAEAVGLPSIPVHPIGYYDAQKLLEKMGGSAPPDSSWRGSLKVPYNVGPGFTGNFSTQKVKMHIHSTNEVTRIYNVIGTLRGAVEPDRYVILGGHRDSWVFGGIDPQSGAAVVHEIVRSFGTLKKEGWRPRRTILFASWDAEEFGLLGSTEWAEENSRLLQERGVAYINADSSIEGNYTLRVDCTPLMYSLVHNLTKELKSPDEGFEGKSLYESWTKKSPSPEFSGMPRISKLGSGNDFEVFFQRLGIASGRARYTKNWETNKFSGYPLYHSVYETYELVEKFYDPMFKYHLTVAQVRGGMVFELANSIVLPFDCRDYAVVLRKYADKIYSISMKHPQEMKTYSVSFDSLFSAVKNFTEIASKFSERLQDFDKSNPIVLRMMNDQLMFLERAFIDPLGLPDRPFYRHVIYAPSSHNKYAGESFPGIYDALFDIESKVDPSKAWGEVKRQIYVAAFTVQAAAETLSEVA

Binding result, binds:
B1
B2
B3
